Experimental findings from publication doi:10.1101/2020.05.04.070177, “Mechanistic insights into RNA binding and RNA-regulated RIG-I ubiquitination by TRIM25” (bioRxiv, 2020) are described below.

The target of one data set is TRIM25 PRY/SPRY (UniProt Q14258 439-630). As to the kind of experiment: ITC; ITC and filter binding: 20 mM MES pH 6.5, 75 mM NaCl, 0.5 mM TCEP (ITC 20 C, filter binding on ice); NMR: 20 mM Na phosphate pH 6.5, 150 mM NaCl, 2 mM TCEP, 293 K. As to conditions: protein: recombinant; tags: His-Trx (removed); chain copies: 3; hairpin. (In general: Isothermal titration calorimetry measures the heat released or taken up as one component is titrated into another.)

The target of the next data set is TRIM25 CC (UniProt Q14258 189-379). The data set is described as above. Particulars: protein: recombinant; tags: His-Trx (removed); chain copies: 2; hairpin.
Data set [1] has as its target T1, TRIM25 CC-PRY/SPRY (UniProt Q14258 189-630). Briefly: filter binding; ITC and filter binding: 20 mM MES pH 6.5, 75 mM NaCl, 0.5 mM TCEP (ITC 20 C, filter binding on ice); NMR: 20 mM Na phosphate pH 6.5, 150 mM NaCl, 2 mM TCEP, 293 K. Particulars: protein: recombinant; tags: His-Trx (removed); chain copies: 2; hairpin.
Data set [2] addresses T2, TRIM25 CC-PRY/SPRY K283A/K285A (UniProt Q14258 189-630, K283A;K285A). Briefly: ITC; second fitted site; ITC and filter binding: 20 mM MES pH 6.5, 75 mM NaCl, 0.5 mM TCEP (ITC 20 C, filter binding on ice); NMR: 20 mM Na phosphate pH 6.5, 150 mM NaCl, 2 mM TCEP, 293 K. Particulars: protein: recombinant; tags: His-Trx (removed); chain copies: 2; hairpin.
Data set [3] has as its target T3, TRIM25 CC-PRY/SPRY K602E (UniProt Q14258 189-630, K602E). The description is as above. As to conditions: protein: recombinant; tags: His-Trx (removed); chain copies: 2; hairpin.
The target in data set [4] is T4, TRIM25 CC-PRY/SPRY Y463S/Y476S (UniProt Q14258 189-630, Y463S;Y476S). The data set is described as above. As to conditions: protein: recombinant; tags: His-Trx (removed); chain copies: 2; hairpin.
Data set [5] deals with T5, TRIM25 CC-PRY/SPRY H505E/K508E (UniProt Q14258 189-630, H505E;K508E). The data set is described as above. Particulars: protein: recombinant; tags: His-Trx (removed); chain copies: 2; hairpin.
Data set [6] has as its target T6, TRIM25 CC-PRY/SPRY triple mutant (UniProt Q14258 189-630, H505E;K508E;K602E). The data set is described as above. As to conditions: protein: recombinant; tags: His-Trx (removed); chain copies: 2; hairpin.
The target of data set [7] is T7, TRIM25 CC-PRY/SPRY penta-mutant (UniProt Q14258 189-630, K283A;K285A;H505E;K508E;K602E). Described as above. Particulars: protein: recombinant; tags: His-Trx (removed); chain copies: 2; hairpin.
Data set [8] concerns the target T1, TRIM25 CC-PRY/SPRY. Briefly: ITC; highest affinity site; ITC and filter binding: 20 mM MES pH 6.5, 75 mM NaCl, 0.5 mM TCEP (ITC 20 C, filter binding on ice); NMR: 20 mM Na phosphate pH 6.5, 150 mM NaCl, 2 mM TCEP, 293 K. As to conditions: protein: recombinant; tags: His-Trx (removed); chain copies: 2; hairpin.
The target of data set [9] is T2, TRIM25 CC-PRY/SPRY K283A/K285A. Briefly: ITC; first of two fitted sites; ITC and filter binding: 20 mM MES pH 6.5, 75 mM NaCl, 0.5 mM TCEP (ITC 20 C, filter binding on ice); NMR: 20 mM Na phosphate pH 6.5, 150 mM NaCl, 2 mM TCEP, 293 K. As to conditions: protein: recombinant; tags: His-Trx (removed); chain copies: 2; hairpin.
Data set [10] addresses T3, TRIM25 CC-PRY/SPRY K602E. The description is as above. As to conditions: protein: recombinant; tags: His-Trx (removed); chain copies: 2; hairpin.
For data set [11], the target named is T4, TRIM25 CC-PRY/SPRY Y463S/Y476S. Described as above. As to conditions: protein: recombinant; tags: His-Trx (removed); chain copies: 2; hairpin.
Data set [12] has as its target T5, TRIM25 CC-PRY/SPRY H505E/K508E. The data set is described as above. Particulars: protein: recombinant; tags: His-Trx (removed); chain copies: 2; hairpin.
In data set [13] the target is T6, TRIM25 CC-PRY/SPRY triple mutant. Described as above. As to conditions: protein: recombinant; tags: His-Trx (removed); chain copies: 2; hairpin.
For data set [14], the target named is T7, TRIM25 CC-PRY/SPRY penta-mutant. The data set is described as above. Particulars: protein: recombinant; tags: His-Trx (removed); chain copies: 2; hairpin.

T2 sequence (Q14258 189-630 K283A/K285A): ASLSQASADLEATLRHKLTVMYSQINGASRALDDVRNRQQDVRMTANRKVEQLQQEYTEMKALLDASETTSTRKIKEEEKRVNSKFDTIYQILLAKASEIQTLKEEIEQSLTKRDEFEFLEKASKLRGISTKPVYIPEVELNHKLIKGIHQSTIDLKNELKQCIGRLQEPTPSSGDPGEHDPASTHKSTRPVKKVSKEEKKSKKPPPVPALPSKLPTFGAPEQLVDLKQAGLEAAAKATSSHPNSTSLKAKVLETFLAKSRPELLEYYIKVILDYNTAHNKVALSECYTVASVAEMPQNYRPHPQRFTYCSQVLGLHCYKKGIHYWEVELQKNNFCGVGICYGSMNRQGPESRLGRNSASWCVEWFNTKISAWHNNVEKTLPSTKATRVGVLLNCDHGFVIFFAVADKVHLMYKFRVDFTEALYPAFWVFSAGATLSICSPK
T3 sequence (Q14258 189-630 K602E): as the sequence (Q14258 189-630 K283A/K285A) above, with A95K, A97K, K414E counted along it
T5 sequence (Q14258 189-630 H505E/K508E): as the sequence (Q14258 189-630 K283A/K285A) above, with A95K, A97K, H317E, K320E counted along it
T1 sequence (Q14258 189-630): as the sequence (Q14258 189-630 K283A/K285A) above, with A95K, A97K counted along it
T6 sequence (Q14258 189-630 H505E/K508E/K602E): as the sequence (Q14258 189-630 K283A/K285A) above, with A95K, A97K, H317E, K320E, K414E counted along it
T7 sequence (Q14258 189-630 K283A/K285A/H505E/K508E/K602E): as the sequence (Q14258 189-630 K283A/K285A) above, with H317E, K320E, K414E counted along it
T4 sequence (Q14258 189-630 Y463S/Y476S): as the sequence (Q14258 189-630 K283A/K285A) above, with A95K, A97K, Y275S, Y288S counted along it
TRIM25 CC, sequence (Q14258 189-379): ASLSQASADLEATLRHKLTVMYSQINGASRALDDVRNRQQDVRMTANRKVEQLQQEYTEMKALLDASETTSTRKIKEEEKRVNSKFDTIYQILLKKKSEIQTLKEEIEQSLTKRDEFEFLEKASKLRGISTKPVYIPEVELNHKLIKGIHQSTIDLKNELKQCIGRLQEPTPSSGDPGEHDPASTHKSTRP
TRIM25 PRY/SPRY, sequence (Q14258 439-630): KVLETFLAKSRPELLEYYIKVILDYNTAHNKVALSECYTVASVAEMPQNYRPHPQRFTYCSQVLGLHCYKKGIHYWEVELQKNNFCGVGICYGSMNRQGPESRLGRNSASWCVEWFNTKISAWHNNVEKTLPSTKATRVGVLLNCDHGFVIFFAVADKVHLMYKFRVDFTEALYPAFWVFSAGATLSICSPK

With GUAUAGUUUAAAAGGAGAUAACUAUAC (structured_RNA) [pre-let-7a-1@2], the Kd was 5000 ± 1200 nM with TRIM25 PRY/SPRY; 8100 ± 3100 nM with TRIM25 CC; 10.2 ± 3.8 nM in the data set with TRIM25 CC-PRY/SPRY [1]; 16600 ± 2100 nM in [2]; 2540 ± 120 nM with TRIM25 CC-PRY/SPRY K602E [3]; 17000 ± 11000 nM in data set [4]. Moreover, the Kd in data set [5] was 4190 ± 500 nM; in data set [6], 132000 ± 24000 nM; in data set [7], 124000 ± 28000 nM; in the data set with TRIM25 CC-PRY/SPRY [8], 72 ± 33 nM; in data set [9], 606 ± 124 nM; with TRIM25 CC-PRY/SPRY K602E [10], 196 ± 22 nM. In addition, the Kd in data set [11] was found to be 252 ± 61 nM; in data set [12], 484 ± 48 nM; in data set [13], 790 ± 160 nM; in [14], 1320 ± 370 nM.

As usually defined, the Kd is the concentration at which binding is half-saturated.
